Like-named read-outs stand apart in the source and are kept apart here.
How the values were obtained:
[1] = biological target: ubiquitin-7-amino-4-methyl coumarin (Ub-AMC) (UniProt P0CG47)
[2] = biological target: ubiquitin-7-amino-4-methyl coumarin (Ub-AMC) (UniProt P0CG47); remark: listed apart in the source

Substance | DUB activity in vitro with Ub-AMC as substrate (Kapp, percent of WT) [1] | DUB activity in vitro with Ub-AMC as substrate (Kapp, percent of WT) [2]
TYMV PRO/DUB N760A (enzyme) | 135 % of WT | –
TYMV PRO/DUB R844A (enzyme) | – | 320 % of WT
TYMV PRO/DUB N760A/R844A (enzyme) | – | 344 % of WT
TYMV PRO/DUB T763A (enzyme) | 89 % of WT | –
TYMV PRO/DUB E759A (enzyme) | 137 % of WT | –
